Results from patent US20060240044A1.

Biological target: human Vβ1.1 TcR (human)
Assay: cell-based or functional assay

Substance	Percentage of Vβ enrichment (Vβ 1.1) [%]	Vβ cDNA clones from toxin stimulated T cells identified as Vβ1.1	stimulation of T cells carrying the Vβ1.1 TcR, against ConA (further results) [times]	stimulation of T cells carrying the Vβ1.1 TcR, against ConA (initial results) [times]
recombinant SPE-L	8.44	5 of 5 cDNAs	> 80	> 50
recombinant SPE-M	6.75	4 of 5 cDNAs	70	> 60
